From patent US20130096072A1 (Genentech, published 2013)
Bridges are numbered along the chain shown (N, C = ends). Where no end group is shown, it is not given here.

B1: IVGG.14 peptide (peptide)
peptide: IVGGYPWWMDV-NH2
notes: Synthetic peptide; also called possibly ZAP.14

Assays:
[1] = target: T1, scHGF β-chain (zymogen-like HGF β, residues Asn479 to Ser728, R494E, C-terminal His-tag) (human, UniProt P14210 479-728); assay: BLI scHGF β activation/Met binding assay
T1 construct: Expressed in insect cells; also called zHGF β; zymogen-like form of HGF β; not shown: C-terminal His-tag

[2] = target: T1, scHGF β-chain (zymogen-like HGF β, …); assay: BLI (OctetRed) scHGF β activation/Met binding assay: peptide titrated into 0.5 µM scHGF β over biotinylated Met Sema/PSI on streptavidin tips; steady-state single-site fit
Procedure: (§1) Met binding assays were carried out utilizing the OctetRed™ biolayer interferometry instrument (ForteBio, Inc.) as reported previously (Landgraf, K. E. et al. (2010) J Biol Chem 285: 40362-72). Biotinylated Met ECD (Sema/PSI-AviTag) was captured on the surface of streptavidin optical sensor tips (SA biosensors, ForteBio, Inc.), and transferred into buffer containing 0.5 μM scHGF β-chain variants in the presence of increasing concentration of indicated peptides. Association and dissociation reactions were monitored to ensure reversible binding between scHGF β and Met. Binding was quantified using the steady-state levels of surface response from the association reaction. Equilibrium constants were derived by least squares fitting of the titration data to a single-site binding equation. Errors reported are ±stdev of n=3 independent experiments.
Based on the finding that the consensus ZAPs contain features consistent with binding and inserting into the activation pocket, several related peptides were synthesized and utilized in a previously established scHGF β activation assay to assess their affinities and ability to active Met binding (Landgraf, K. E. et al. (2010) J Biol Chem 285: 40362-72). Since scHGF β can only weakly interact with the Met Sema-PSI domain compared to the active HGF β form, biolayer interferometry was used in the activation assay to measure the ability of a peptide to directly enhance the binding affinity of scHGF β to a streptavidin sensor surface coated with biotinylated Met (Landgraf, K. E. et al. (2010) J Biol Chem 285: 40362-72). Thus, titration of an activator peptide should result in a significant increase in the surface response signal due to enhanced scHGF β binding to Met.

[3] = target: T1, scHGF β-chain (zymogen-like HGF β, …); assay: BLI, peptide-dependent activation of zHGF β binding to surface immobilized Met ECD
Procedure: as §1

[4] = target: scHGF (non-cleavable form of full-length pro-HGF with a mutated cleavage site) (human, UniProt P14210 32-728); assay: cell-based or functional assay
[5] = target: T1, scHGF β-chain (zymogen-like HGF β, …); assay: activity-based phage sorting: library with 0.5 µM scHGF β in solution, complex captured on a Met Sema-PSI coated plate; the clones as a group are plotted in FIG. 9B
Procedure: Where activity-based sorting was conducted, the phage library was incubated in solution with 0.5 μM scHGF β at 4° C. then the mixture was applied to a Maxi-Sorp plate coated with 5 μg/ml Met Sema-PSI ECD protein for capture of activated complex. To analyze phage clones from the activity-based sorting two ELISAs were carried out separately to analyze binding and activity. The first ELISA measured direct phage binding to wells coated with 5 μg/ml scHGF β relative to a BSA control. The second activity ELISA measured phage binding to wells coated with 5 μg/ml Met in the presence or absence (negative control) of 0.5 μM scHGF β in solution. The data from these two ELISAs were plotted with direct binding on the y-axis and Met capture (activity) on the x-axis.
The new 15-mer ZAP-gene VIII phage library contained two main regions that were preferentially shielded from hard-randomization, the N-terminal motif which inserted into the activation pocket and a portion of the reverse turn motif that packs against the protein surface in the bound state (FIG. 8A). […] Phage clones from the solution sort and activity-based sort were sequenced and subjected to a 2-dimensional ELISA analysis, where the clones were analyzed for (i) direct scHGF β binding and (ii) the ability of phage clones to be captured by Met only in the presence of scHGF β.

T1 sequence (P14210 479-728 R494E): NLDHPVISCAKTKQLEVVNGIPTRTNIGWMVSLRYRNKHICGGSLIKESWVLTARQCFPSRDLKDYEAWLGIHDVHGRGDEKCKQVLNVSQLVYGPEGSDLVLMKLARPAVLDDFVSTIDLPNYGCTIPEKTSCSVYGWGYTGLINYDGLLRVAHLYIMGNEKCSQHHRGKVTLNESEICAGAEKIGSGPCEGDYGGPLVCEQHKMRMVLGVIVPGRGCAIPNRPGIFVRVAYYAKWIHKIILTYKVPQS
Chain of scHGF (non-cleavable form of full-length pro-HGF with a mutated cleavage site) (P14210 32-728 limits assumed, change not shown): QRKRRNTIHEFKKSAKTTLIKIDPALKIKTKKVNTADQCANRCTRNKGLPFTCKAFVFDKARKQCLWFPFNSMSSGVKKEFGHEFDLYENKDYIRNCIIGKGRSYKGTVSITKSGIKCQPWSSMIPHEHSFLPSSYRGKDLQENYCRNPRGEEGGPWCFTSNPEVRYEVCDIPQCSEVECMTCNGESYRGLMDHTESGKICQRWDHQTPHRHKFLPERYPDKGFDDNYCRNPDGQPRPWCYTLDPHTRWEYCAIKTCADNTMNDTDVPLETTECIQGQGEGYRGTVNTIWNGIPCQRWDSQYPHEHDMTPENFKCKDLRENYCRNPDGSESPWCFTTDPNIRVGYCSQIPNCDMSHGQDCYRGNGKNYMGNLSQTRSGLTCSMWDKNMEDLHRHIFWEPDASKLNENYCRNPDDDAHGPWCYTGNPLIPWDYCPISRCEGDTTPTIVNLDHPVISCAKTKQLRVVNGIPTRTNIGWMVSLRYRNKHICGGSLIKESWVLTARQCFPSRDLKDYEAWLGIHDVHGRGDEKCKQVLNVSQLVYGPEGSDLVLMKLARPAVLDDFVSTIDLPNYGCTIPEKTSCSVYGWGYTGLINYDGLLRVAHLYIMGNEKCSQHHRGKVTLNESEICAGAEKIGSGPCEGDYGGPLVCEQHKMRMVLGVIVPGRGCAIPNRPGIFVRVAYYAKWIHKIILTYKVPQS

Row | Binder | fold more potent than the peptides derived from the native N-terminus of the β-chain of HGF [1] [fold] | Kd [2] [µM] | fold improvement over previous activators [3] [fold] | EC50, BxPC-3 cell survival assay, peptide titrated with scHGF [4] [µM] | binding result [5]
1 | B1 | ~60 | 34 | > 90 | ~20 | –
2 | IIGGCPYWMDREECI (disulfide 5-14) [ZAP.03] | – | – | – | – | binds
